# T1: AdoMet synthetase (MAT, MetK) (Pseudomonas aeruginosa, UniProt Q9I5Z0)
# T1 sequence (Q9I5Z0 1-396): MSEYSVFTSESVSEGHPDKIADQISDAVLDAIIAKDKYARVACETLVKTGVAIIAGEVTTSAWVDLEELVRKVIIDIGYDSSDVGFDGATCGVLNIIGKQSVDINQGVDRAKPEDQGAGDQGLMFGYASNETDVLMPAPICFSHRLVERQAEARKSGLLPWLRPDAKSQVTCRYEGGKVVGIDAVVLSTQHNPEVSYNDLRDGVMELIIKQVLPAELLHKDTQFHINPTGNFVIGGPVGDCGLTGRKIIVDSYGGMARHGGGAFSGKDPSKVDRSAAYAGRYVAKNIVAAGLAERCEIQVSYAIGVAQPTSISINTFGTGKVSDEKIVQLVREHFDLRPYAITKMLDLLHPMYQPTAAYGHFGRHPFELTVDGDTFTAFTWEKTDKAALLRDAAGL
# B1: S-adenosylmethionine synthetase (AdoMet synthetase, MAT) from Pseudomonas aeruginosa PA01 (enzyme, UniProt B7V4D3 1-396, looked up)
# chain: T1 sequence (Q9I5Z0 1-396)
# B2: AdoMet synthetase (MAT, MetK) (Escherichia coli K-12) (protein)
# chain: AKHLFTSESVSEGHPDKIADQISDAVLDAILEQDPKARVACETYVKTGMVLVGGEITTSAWVDIEEITRNTVREIGYVHSDMGFDANSCAVLSAIGKQSPDINQGVDRADPLEQGAGDQGLMFGYATNETDVLMPAPITYAHRLVQRQAEVRKNGTLPWLRPDAKSQVTFQYDDGKIVGIDAVVLSTQHSEEIDQKSLQEAVMEEIIKPILPAEWLTSATKFFINPTGRFVIGGPMGDCGLTGRKIIVDTYGGMARHGGGAFSGKDPSKVDRSAAYAARYVAKNIVAAGLADRCEIQVSYAIGVAEPTSIMVETFGTEKVPSEQLTLLVREFFDLRPYGLIQMLDLLHPIYKETAAYGHFGREHFPWEKTDKAQLLRDAAGLK
# B3: S-adenosylmethionine synthetase (AdoMet synthetase, MAT) from Escherichia coli K12 (enzyme, UniProt B1XFA4 1-384, looked up)
# chain: MAKHLFTSESVSEGHPDKIADQISDAVLDAILEQDPKARVACETYVKTGMVLVGGEITTSAWVDIEEITRNTVREIGYVHSDMGFDANSCAVLSAIGKQSPDINQGVDRADPLEQGAGDQGLMFGYATNETDVLMPAPITYAHRLVQRQAEVRKNGTLPWLRPDAKSQVTFQYDDGKIVGIDAVVLSTQHSEEIDQKSLQEAVMEEIIKPILPAEWLTSATKFFINPTGRFVIGGPMGDCGLTGRKIIVDTYGGMARHGGGAFSGKDPSKVDRSAAYAARYVAKNIVAAGLADRCEIQVSYAIGVAEPTSIMVETFGTEKVPSEQLTLLVREFFDLRPYGLIQMLDLLHPIYKETAAYGHFGREHFPWEKTDKAQLLRDAAGLK
# B4: S-adenosylmethionine synthetase (AdoMet synthetase, MAT) from Campylobacter jejuni 81-176 (enzyme, UniProt Q0P9F8 1-398, looked up)
# chain: MYLFTSEVVSAGHPDKCADIIADTIVDILLKNDKNSRVASEVFVAGNKVVIGGEVKSNHKLSKADYDNLVKDVLKNIGYDGAGHFSKEQCLHPDEVDVMVFLNEQSPDINQGVDQEDGETGAGDQGIMFGFASCEAEEYMPAAISYARMLCDRVYAYAKANPHELGVDIKTQVTIDYGTKANFENCKPQSIHTIVVSAPCVESMKIEDLRSLVMKLILDSNLPKELFDPNKTRILINPTGKYVNHSSLHDSGLTGRKLIVDSFGGYSPIGGGAQSSKDYTKVDRSGLYAGRWLAKNIVAAGLAKKCIVQLSYAIGVAKPTSVSVDCMGTNTSVNDDVLSDFVMQNFSLTPNWIRDKFHLDKPSKETFLYADVAARGQVGQKDYPWEKLDALEQFKKLL
# Assays:
# [1] = target: S-adenosylmethionine synthetase (AdoMet synthetase, MAT) from Neisseria meningitidis WUE2594 (Neisseria meningitidis WUE2594); assay: native gel or EMSA
# [2] = target: S-adenosylmethionine synthetase (AdoMet synthetase, MAT) from Neisseria meningitidis WUE2594 (Neisseria meningitidis WUE2594); assay: dynamic light scattering
# [3] = target: AdoMet synthetase (MAT, MetK); assay: coupled enzyme assay, Dixon plot; type: biochemical, Campylobacter jejuni
# [4] = target: T1, AdoMet synthetase (MAT, MetK); assay: coupled enzyme assay, Dixon plot; type: biochemical
# [5] = substrate: CSCC[C@H](N)C(=O)O; assay: coupled pyrophosphate enzyme assay, steady-state kinetics; type: biochemical, Pseudomonas aeruginosa; conditions: MgATP L-methionine binding site of the active site
# dynamic light scattering = target: the molecule itself; assay: dynamic light scattering
# [6] = substrate: CCOC(=O)[C@@H](N)CCSC; assay: coupled pyrophosphate enzyme assay, alternative substrate kinetics; type: biochemical, Escherichia coli; conditions: MgATP L-methionine binding site
# [7] = substrate: COC(=O)[C@@H](N)CCSC; assay: as above; type: biochemical, Escherichia coli; conditions: MgATP L-methionine binding site
molecule,measurement,setting,value
"S-adenosylmethionine synthetase (AdoMet synthetase, MAT) from Neisseria meningitidis WUE2594 (enzyme)",stoichiometry N,[1],4
same,stoichiometry N,[2],4
"CSCC[C@H](N)CC(=O)O [β-methionine, (R)-3-amino-5-(methylthio)pentanoic acid]",Ki,[3],~7 mM
NC(=O)SC[C@H](N)C(=O)O [S-carbamyl-L-cysteine],Ki,[4],~4 mM
B1,Km,[5],40 ± 5 µM
same,stoichiometry N,dynamic light scattering,4
B2,Km,[6],120 ± 10 µM
same,Km,[7],170 ± 50 µM
B3,stoichiometry N,dynamic light scattering,4
B4,stoichiometry N,dynamic light scattering,2

# — PMC4007306 (Archives of biochemistry and biophysics, 2013)
